The values that follow come from US20220002403A1.

The target of this assay is human ILT4 haplotype 5 expressed on mouse 3A9 T cells (human) (UniProt Q8N423). Briefly: cell-based or functional assay.
Chain of human ILT4 haplotype 5 expressed on mouse 3A9 T cells (human) (Q8N423 other isoform, or with tags, fused parts or gaps): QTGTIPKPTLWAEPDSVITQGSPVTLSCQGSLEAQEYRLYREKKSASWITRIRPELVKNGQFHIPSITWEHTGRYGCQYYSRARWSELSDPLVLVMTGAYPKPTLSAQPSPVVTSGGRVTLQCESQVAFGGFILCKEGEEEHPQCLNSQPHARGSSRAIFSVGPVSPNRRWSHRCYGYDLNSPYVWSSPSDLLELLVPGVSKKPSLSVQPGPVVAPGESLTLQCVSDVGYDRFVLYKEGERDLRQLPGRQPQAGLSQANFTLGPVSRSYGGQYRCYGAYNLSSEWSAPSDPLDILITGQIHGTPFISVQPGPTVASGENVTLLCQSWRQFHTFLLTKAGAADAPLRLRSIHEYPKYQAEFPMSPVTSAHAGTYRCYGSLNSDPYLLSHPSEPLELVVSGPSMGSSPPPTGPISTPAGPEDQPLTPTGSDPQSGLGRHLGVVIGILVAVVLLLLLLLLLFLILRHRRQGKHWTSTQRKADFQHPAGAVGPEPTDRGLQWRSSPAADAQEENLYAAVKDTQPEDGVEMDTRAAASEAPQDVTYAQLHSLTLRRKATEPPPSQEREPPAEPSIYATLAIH

B1: 1E1(G4) (antibody, human IgG4 S228P, lambda, V domains shown)
VH: EVQLQQWGAGLLKPSETLSLTCAVYGGSFSGYYWSWIRQPPGKGLEWIGEINHAGSTNYNPSLKSRVTISVDTSKNQFSLKLSSVTAADTAVYYCARLPTRWVTTRYFDLWGRGTLVTVSS
VL: ESVLTQPPSVSGAPGQRVTISCTGSSSNIGAGYDVHWYQQLPGTAPKLLIYGDSNRPSGVPDRFSVSKSGASASLAITGLQAEDEADYYCQSFDNSLSAYVFGGGTQLTVLG
On to B1, for which the EC50 (IL-2 Repression Assay: rescue of IL-2 release from anti-CD3 stimulated ILT4 3A9 T cell transfectants, ELISA) was determined as 0.43 µg/mL.
